In publication PMC9891163 (Drug Delivery, 2023) one finds Aqueous dispersibility data, which are given here for one substance.

This data set can be described thus: Aqueous dispersibility of the peptide-lipid conjugate. The format is physicochemical.

Turning to “(Dipalmitoyl)lysine-KSS-(SG)5-ApoEdp [ApoEdp-SG-lipid]”, the Aqueous dispersibility result is on record as “excellent aqueous dispersibility”.
